Literature values, collected in US20200069786A1, “COMPOSITION AND PROCESS FOR PREPARING VACCINE” (TREOS BIO ZRT., priority 2018, published 2020).
Read-outs that look alike come from different tables or passages of the source.

System: TSA
[1] = TSA expression rate in GASTRIC cancer
[2] = TSA expression rate in HEAD and NECK
[3] = TSA expression rate in LEUKEMIAS
[4] = TSA expression rate in LUNG cancer
[5] = TSA expression rate in BLADDER cancer
[6] = TSA expression rate in MELANOMA
[7] = TSA expression rate in PROSTATE cancer

B1: TPTE (protein, UniProt P56180 1-551, looked up)
Putative tyrosine-protein …: MNESPDPTDLAGVIIELGPNDSPQTSEFKGATEEAPAKESPHTSEFKGAARVSPISESVLARLSKFEVEDAENVASYDSKIKKIVHSIVSSFAFGLFGVFLVLLDVTLILADLIFTDSKLYIPLEYRSISLAIALFFLMDVLLRVFVERRQQYFSDLFNILDTAIIVILLLVDVVYIFFDIKLLRNIPRWTHLLRLLRLIILLRIFHLFHQKRQLEKLIRRRVSENKRRYTRDGFDLDLTYVTERIIAMSFPSSGRQSFYRNPIKEVVRFLDKKHRNHYRVYNLCSERAYDPKHFHNRVVRIMIDDHNVPTLHQMVVFTKEVNEWMAQDLENIVAIHCKGGTDRTGTMVCAFLIASEICSTAKESLYYFGERRTDKTHSEKFQGVKTPSQKRYVAYFAQVKHLYNWNLPPRRILFIKHFIIYSIPRYVRDLKIQIEMEKKVVFSTISLGKCSVLDNITTDKILIDVFDGLPLYDDVKVQFFYSNLPTYYDNCSFYFWLHTSFIENNRLYLPKNELDNLHKQKARRIYPSDFAVEILFGEKMTSSDVVAGSD
For B1, the “TSA Expression Rate (ER)” value (BRAIN) is given as 0%, the “TSA Expression Rate (ER)” value (HCC) is given as 39% and the “TSA Expression Rate (ER)” value (LUNG) is given as 36%. The “Expression Rate (ER) %” value (TSA expression rate in CRC) was 4%, the “Expression Rate (ER) %” value [1] was 0% and the “Expression Rate (ER) %” value [2] was 0%.

B2: MAGE-B4 (protein, UniProt O15481 1-346, looked up)
Melanoma-associated antigen B4: MPRGQKSKLRAREKRQRTRGQTQDLKVGQPTAAEKEESPSSSSSVLRDTASSSLAFGIPQEPQREPPTTSAAAAMSCTGSDKGDESQDEENASSSQASTSTERSLKDSLTRKTKMLVQFLLYKYKMKEPTTKAEMLKIISKKYKEHFPEIFRKVSQRTELVFGLALKEVNPTTHSYILVSMLGPNDGNQSSAWTLPRNGLLMPLLSVIFLNGNCAREEEIWEFLNMLGIYDGKRHLIFGEPRKLITQDLVQEKYLEYQQVPNSDPPRYQFLWGPRAHAETSKMKVLEFLAKVNDTTPNNFPLLYEEALRDEEERAGARPRVAARRGTTAMTSAYSRATSSSSSQPM
In the case of B2, the “TSA Expression Rate (ER)” value (BRAIN) is given as 0%, the “Expression Rate (ER) %” value [3] is given as 3% and the “Expression Rate (ER) %” value [4] is given as 0%.

B3: MAGE-B1 (protein, UniProt P43366 1-347, looked up)
Melanoma-associated antigen B1: MPRGQKSKLRAREKRRKAREETQGLKVAHATAAEKEECPSSSPVLGDTPTSSPAAGIPQKPQGAPPTTTAAAAVSCTESDEGAKCQGEENASFSQATTSTESSVKDPVAWEAGMLMHFILRKYKMREPIMKADMLKVVDEKYKDHFTEILNGASRRLELVFGLDLKEDNPSGHTYTLVSKLNLTNDGNLSNDWDFPRNGLLMPLLGVIFLKGNSATEEEIWKFMNVLGAYDGEEHLIYGEPRKFITQDLVQEKYLKYEQVPNSDPPRYQFLWGPRAYAETTKMKVLEFLAKMNGATPRDFPSHYEEALRDEEERAQVRSSVRARRRTTATTFRARSRAPFSRSSHPM
For B3, the “TSA Expression Rate (ER)” value (BRAIN) is listed as 0%, the “TSA Expression Rate (ER)” value (HCC) is listed as 47% and the “Expression Rate (ER) %” value [5] is listed as 0%. For the same molecule, the “Expression Rate (ER) %” value (TSA expression rate in CRC) was 0%, the “Expression Rate (ER) %” value (TSA expression rate in Kidney) was 0% and the “Expression Rate (ER) %” value [3] was 5%. The “Expression Rate (ER) %” value [4] was 13%, the “Expression Rate (ER) %” value [6] was 19% and the “Expression Rate (ER) %” value [7] was 0%.

B4: MAGE-B2 (protein, UniProt O15479 1-319, looked up)
Melanoma-associated antigen B2: MPRGQKSKLRAREKRRKARDETRGLNVPQVTEAEEEEAPCCSSSVSGGAASSSPAAGIPQEPQRAPTTAAAAAAGVSSTKSKKGAKSHQGEKNASSSQASTSTKSPSEDPLTRKSGSLVQFLLYKYKIKKSVTKGEMLKIVGKRFREHFPEILKKASEGLSVVFGLELNKVNPNGHTYTFIDKVDLTDEESLLSSWDFPRRKLLMPLLGVIFLNGNSATEEEIWEFLNMLGVYDGEEHSVFGEPWKLITKDLVQEKYLEYKQVPSSDPPRFQFLWGPRAYAETSKMKVLEFLAKVNGTTPCAFPTHYEEALKDEEKAGV
For B4, the “TSA Expression Rate (ER)” value (BRAIN) is listed as 0%, the “TSA Expression Rate (ER)” value (HCC) is listed as 61% and the “TSA Expression Rate (ER)” value (LUNG) is listed as 43%. The “Expression Rate (ER) %” value [5] was 0%, the “Expression Rate (ER) %” value (TSA expression rate in CRC) was 0% and the “Expression Rate (ER) %” value [1] was 0%. For the same molecule, the “Expression Rate (ER) %” value [2] was 45%, the “Expression Rate (ER) %” value (TSA expression rate in Kidney) was 0% and the “Expression Rate (ER) %” value [6] was 22%. The “Expression Rate (ER) %” value [7] was 0%.

B5: SAGE1 (protein, UniProt Q9NXZ1 1-904, looked up)
Sarcoma antigen 1: MQASPLQTSQPTPPEELHAAAYVFTNDGQQMRSDEVNLVATGHQSKKKHSRKSKRHSSSKRRKSMSSWLDKQEDAAVTHSICEERINNGQPVADNVLSTAPPWPDATIAHNIREERMENGQSRTDKVLSTAPPQLVHMAAAGIPSMSTRDLHSTVTHNIREERMENGQPQPDNVLSTGPTGLINMAATPIPAMSARDLYATVTHNVCEQKMENVQPAPDNVLLTLRPRRINMTDTGISPMSTRDPYATITYNVPEEKMEKGQPQPDNILSTASTGLINVAGAGTPAISTNGLYSTVPHNVCEEKMENDQPQPNNVLSTVQPVIIYLTATGIPGMNTRDQYATITHNVCEERVVNNQPLPSNALSTVLPGLAYLATADMPAMSTRDQHATIIHNLREEKKDNSQPTPDNVLSAVTPELINLAGAGIPPMSTRDQYATVNHHVHEARMENGQRKQDNVLSNVLSGLINMAGASIPAMSSRDLYATITHSVREEKMESGKPQTDKVISNDAPQLGHMAAGGIPSMSTKDLYATVTQNVHEERMENNQPQPSYDLSTVLPGLTYLTVAGIPAMSTRDQYATVTHNVHEEKIKNGQAASDNVFSTVPPAFINMAATGVSSMSTRDQYAAVTHNIREEKINNSQPAPGNILSTAPPWLRHMAAAGISSTITRDLYVTATHSVHEEKMTNGQQAPDNSLSTVPPGCINLSGAGISCRSTRDLYATVIHDIQEEEMENDQTPPDGFLSNSDSPELINMTGHCMPPNALDSFSHDFTSLSKDELLYKPDSNEFAVGTKNYSVSAGDPPVTVMSLVETVPNTPQISPAMAKKINDDIKYQLMKEVRRFGQNYERIFILLEEVQGSMKVKRQFVEFTIKEAARFKKVVLIQQLEKALKEIDSHCHLRKVKHMRKR
In the case of B5, the “TSA Expression Rate (ER)” value (BRAIN) is listed as 0%, the “TSA Expression Rate (ER)” value (BREAST) is listed as 2% and the “TSA Expression Rate (ER)” value (THYROID) is listed as 0%. The “Expression Rate (ER) %” value [5] was 12%, the “Expression Rate (ER) %” value (TSA expression rate in Esophageal) was 22% and the “Expression Rate (ER) %” value [1] was 8%. The “Expression Rate (ER) %” value [2] was 17%, the “Expression Rate (ER) %” value (TSA expression rate in Kidney) was 5% and the “Expression Rate (ER) %” value [4] was 15%. For the same molecule, the “Expression Rate (ER) %” value [6] was 5%.

B6: ATAD2 (protein, UniProt Q6PL18 1-1390, looked up)
ATPase family AAA …: MVVLRSSLELHNHSAASATGSLDLSSDFLSLEHIGRRRLRSAGAAQKKPAATTAKAGDGSSVKEVETYHRTRALRSLRKDAQNSSDSSFEKNVEITEQLANGRHFTRQLARQQADKKKEEHREDKVIPVTRSLRARNIVQSTEHLHEDNGDVEVRRSCRIRSRYSGVNQSMLFDKLITNTAEAVLQKMDDMKKMRRQRMRELEDLGVFNETEESNLNMYTRGKQKDIQRTDEETTDNQEGSVESSEEGEDQEHEDDGEDEDDEDDDDDDDDDDDDDDEDDEDEEDGEEENQKRYYLRQRKATVYYQAPLEKPRHQRKPNIFYSGPASPARPRYRLSSAGPRSPYCKRMNRRRHAIHSSDSTSSSSSEDEQHFERRRKRSRNRAINRCLPLNFRKDELKGIYKDRMKIGASLADVDPMQLDSSVRFDSVGGLSNHIAALKEMVVFPLLYPEVFEKFKIQPPRGCLFYGPPGTGKTLVARALANECSQGDKRVAFFMRKGADCLSKWVGESERQLRLLFDQAYQMRPSIIFFDEIDGLAPVRSSRQDQIHSSIVSTLLALMDGLDSRGEIVVIGATNRLDSIDPALRRPGRFDREFLFSLPDKEARKEILKIHTRDWNPKPLDTFLEELAENCVGYCGADIKSICAEAALCALRRRYPQIYTTSEKLQLDLSSINISAKDFEVAMQKMIPASQRAVTSPGQALSTVVKPLLQNTVDKILEALQRVFPHAEFRTNKTLDSDISCPLLESDLAYSDDDVPSVYENGLSQKSSHKAKDNFNFLHLNRNACYQPMSFRPRILIVGEPGFGQGSHLAPAVIHALEKFTVYTLDIPVLFGVSTTSPEETCAQVIREAKRTAPSIVYVPHIHVWWEIVGPTLKATFTTLLQNIPSFAPVLLLATSDKPHSALPEEVQELFIRDYGEIFNVQLPDKEERTKFFEDLILKQAAKPPISKKKAVLQALEVLPVAPPPEPRSLTAEEVKRLEEQEEDTFRELRIFLRNVTHRLAIDKRFRVFTKPVDPDEVPDYVTVIKQPMDLSSVISKIDLHKYLTVKDYLRDIDLICSNALEYNPDRDPGDRLIRHRACALRDTAYAIIKEELDEDFEQLCEEIQESRKKRGCSSSKYAPSYYHVMPKQNSTLVGDKRSDPEQNEKLKTPSTPVACSTPAQLKRKIRKKSNWYLGTIKKRRKISQAKDDSQNAIDHKIESDTEETQDTSVDHNETGNTGESSVEENEKQQNASESKLELRNNSNTCNIENELEDSRKTTACTELRDKIACNGDASSSQIIHISDENEGKEMCVLRMTRARRSQVEQQQLITVEKALAILSQPTPSLVVDHERLKNLLKTVVKKSQNYNIFQLENLYAVISQCIYRHRKDHDKTSLIQKMEQEVENFSCSR
In the case of B6, the “TSA Expression Rate (ER)” value (BREAST) is given as 52%, the “TSA Expression Rate (ER)” value (LUNG) is given as 23% and the “Expression Rate (ER) %” value (TSA expression rate in CRC) is given as 58%. The “Expression Rate (ER) %” value [1] was 43%, the “Expression Rate (ER) %” value [6] was 0% and the “Expression Rate (ER) %” value [7] was 0%.

B7: WBP2NL (protein, UniProt Q6ICG8 1-309, looked up)
Postacrosomal sheath WW …: MAVNQSHTENRRGALIPNGESLLKRSPNVELSFPQRSEGSNVFSGRKTGTLFLTSYRVIFITSCSISDPMLSFMMPFDLMTNLTVEQPVFAANFIKGTIQAAPYGGWEGQATFKLVFRNGDAIEFAQLMVKAASAAARGFPLRTLNDWFSSMGIYVITGEGNMCTPQMPCSVIVYGAPPAGYGAPPPGYGAPPAGYGAQPVGNEGPPVGYRASPVRYGAPPLGYGAPPAGYGAPPLGYGAPPLGYGTPPLGYGAPPLGYGAPPAGNEGPPAGYRASPAGSGARPQESTAAQAPENEASLPSASSSQVHS
In the case of B7, the “TSA Expression Rate (ER)” value (BREAST) is given as 50%.

B8: MART1 (protein, UniProt Q16655 1-118, looked up)
Melanoma antigen recognized …: MPREDAHFIYGYPKKGHGHSYTTAEEAAGIGILTVILGVLLLIGCWYCRRRNGYRALMDKSLHVGTQCALTRRCPQEGFDHRDSKVSLQEKNCEPVVPNAPPAYEKLSAEQSPPPYSP
For B8, the “TSA Expression Rate (ER)” value (BRAIN) is listed as 0%, the “TSA Expression Rate (ER)” value (THYROID) is listed as 0% and the “Expression Rate (ER) %” value [6] is listed as 89%.
